T1: merlin FERM domain (human, UniProt P35240 22-312)
T1 chain: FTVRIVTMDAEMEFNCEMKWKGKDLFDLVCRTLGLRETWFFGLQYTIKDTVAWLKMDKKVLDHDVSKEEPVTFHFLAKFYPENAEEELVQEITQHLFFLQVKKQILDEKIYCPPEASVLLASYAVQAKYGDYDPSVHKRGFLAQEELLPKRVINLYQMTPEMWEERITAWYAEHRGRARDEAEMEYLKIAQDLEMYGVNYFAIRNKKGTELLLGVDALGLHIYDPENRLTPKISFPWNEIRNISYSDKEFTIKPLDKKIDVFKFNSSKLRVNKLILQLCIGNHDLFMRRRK

T2: radixin FERM domain (as used in FP) (human, UniProt P35241 5-295)
T2 chain: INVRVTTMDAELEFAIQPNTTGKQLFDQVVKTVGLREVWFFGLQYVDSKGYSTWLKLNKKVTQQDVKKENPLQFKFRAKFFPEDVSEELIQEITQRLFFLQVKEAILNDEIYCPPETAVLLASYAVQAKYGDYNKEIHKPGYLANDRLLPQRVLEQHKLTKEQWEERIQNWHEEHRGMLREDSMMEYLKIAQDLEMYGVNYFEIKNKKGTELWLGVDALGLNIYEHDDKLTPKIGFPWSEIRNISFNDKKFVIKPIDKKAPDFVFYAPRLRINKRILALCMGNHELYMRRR

No end group written: not given here. *: point of attachment. FITC = O=C1OC2(c3ccc(O)cc3Oc3cc(O)ccc32)c2ccc(NC(=S)*)cc21

The target of the first experiment is T3, moesin FERM domain (UniProt P26038 2-295). Description: FP.
The term Kd denotes the constant that tells how readily two partners part at equilibrium. A higher Kd goes with a looser complex. The molecule LEFADFYDFRSSYPDH [ZNF622(341–356) peptide, unlabeled] returned a Kd of 1400 nM.

The target in a further experiment is T3, moesin FERM domain. Description: FP. The source holds these as a separate data set.
In the case of TNGYYSVNTFKEHHSTPTI [KIRREL3(634–652) peptide, unlabeled, N-terminally extended], the equilibrium dissociation constant (Kd) is 120 nM.

Molecule PYTSYSVQTMETVPYQPFP [TBX4 peptide extended N-terminally with PYT] had a Kd of 3200 nM.

Take SYSVQTMETVPYQPFP [TBX4(428–443) peptide, unlabeled]: the affinity, expressed as Kd, was 1000 nM.

In the case of YYSVNTFKEHHSTPTI [KIRREL3(637–652) peptide, unlabeled], binding was put at a Kd of 90 nM.

A further experiment deals with T3, moesin FERM domain. Description: FP. The source holds these as a separate data set.
{FITC}-YYSVNTFKEHHSTPTI [FITC-KIRREL3(637–652) peptide] gave a Kd of 80 nM.

Consider FYDLWASDNPLDRPLV (also: FITC label, position not given here) [FITC-NOP53(192–207) peptide], for which the affinity, expressed as Kd, was 710 nM.

In the case of {FITC}-THHKALQEIRNSLLPF [FITC-LATS1(73–88) peptide], the Kd was found to be 1000 nM.

As to {FITC}-WSKKNELFSNL [FITC-EBP50(348–358) peptide], the affinity, expressed as Kd, was 3000 nM.

As for SYSVQTMETVPYQPFP (also: FITC label, position not given here) [FITC-TBX4(428–443) peptide], the Kd was determined as 750 nM.

{FITC}-LEFADFYDFRSSYPDH [FITC-ZNF622(341–356) peptide] returned an equilibrium dissociation constant (Kd) of 1000 nM.

A further experiment deals with ezrin FERM domain (as used in FP) (UniProt P15311 2-296). The experiment is described as follows: FP.
ezrin FERM domain (as used in FP), sequence (P15311 2-296): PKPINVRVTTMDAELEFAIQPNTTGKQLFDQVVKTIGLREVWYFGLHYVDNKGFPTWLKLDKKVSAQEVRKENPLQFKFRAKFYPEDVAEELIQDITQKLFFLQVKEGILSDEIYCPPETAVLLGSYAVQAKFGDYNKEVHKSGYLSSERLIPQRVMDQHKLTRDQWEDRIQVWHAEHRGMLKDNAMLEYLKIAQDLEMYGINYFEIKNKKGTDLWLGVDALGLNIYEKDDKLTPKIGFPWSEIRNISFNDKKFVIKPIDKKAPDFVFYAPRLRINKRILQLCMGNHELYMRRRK
As for {FITC}-YYSVNTFKEHHSTPTI [FITC-KIRREL3(637–652) peptide], the Kd is 1400 nM.

Turning to FYDLWASDNPLDRPLV (also: FITC label, position not given here) [FITC-NOP53(192–207) peptide], binding was characterised by a dissociation constant (Kd) of 2400 nM.

The molecule {FITC}-THHKALQEIRNSLLPF [FITC-LATS1(73–88) peptide] had a Kd of 1200 nM.

As to {FITC}-WSKKNELFSNL [FITC-EBP50(348–358) peptide], binding was put at a Kd of 3200 nM.

SYSVQTMETVPYQPFP (also: FITC label, position not given here) [FITC-TBX4(428–443) peptide] showed a Kd of 4500 nM.

On to {FITC}-LEFADFYDFRSSYPDH [FITC-ZNF622(341–356) peptide], for which the Kd was found to be 1600 nM.

The target in another experiment is T1, merlin FERM domain. The experiment is described as follows: FP.
Regarding FYDLWASDNPLDRPLV (also: FITC label, position not given here) [FITC-NOP53(192–207) peptide], the Kd came out at 17000 nM.

The molecule {FITC}-THHKALQEIRNSLLPF [FITC-LATS1(73–88) peptide] returned a Kd of 8500 nM.

The molecule {FITC}-WSKKNELFSNL [FITC-EBP50(348–358) peptide] registered a Kd of 1800 nM.

In turn, {FITC}-LEFADFYDFRSSYPDH [FITC-ZNF622(341–356) peptide] displayed a Kd of 4100 nM.

A further experiment has as its target T2, radixin FERM domain (as used in FP). The experiment is described as follows: FP.
Turning to {FITC}-YYSVNTFKEHHSTPTI [FITC-KIRREL3(637–652) peptide], the Kd is 1400 nM.

FYDLWASDNPLDRPLV (also: FITC label, position not given here) [FITC-NOP53(192–207) peptide] displayed a Kd of 3500 nM.

In the case of {FITC}-THHKALQEIRNSLLPF [FITC-LATS1(73–88) peptide], the Kd amounted to 1700 nM.

Take {FITC}-WSKKNELFSNL [FITC-EBP50(348–358) peptide]: binding was put at a Kd of 3200 nM.

As for SYSVQTMETVPYQPFP (also: FITC label, position not given here) [FITC-TBX4(428–443) peptide], binding was characterised by a dissociation constant (Kd) of 4600 nM.

Take {FITC}-LEFADFYDFRSSYPDH [FITC-ZNF622(341–356) peptide]: binding was characterised by a dissociation constant (Kd) of 2500 nM.
